Data taken from patent US20230287598A1.

B1: VH4-34+CDR3-IL8_CDR1-Cow_CDR2-E50S_Q5RQ6E / VL1-51 S2A, T5N, P8S, A12G, A13S, P14L, K46R, L47T, D51G, N52D, N53T IgG (antibody)
VH: QVQLREWGAGLLKPSETLSLTCTASGFSLSDKAVGWIRQPPGKGLEWIGSINHSGSTNYNPSLKSRVTISVDTSKNQFSLKLSSVTAADTAVYYCTSVHQETKKYQSPRSAKELRCQCIKTYSKPFHPKFIKELRVIESGPHCANTEIIVKLSDGRELCLDPKENWVQRVVEKFLKRAENSGSGSYTYNYEWHVDVWGQGLLVTVSS
light: QAVLNQPSSVSGSLGQKVTISCSGSSSNIGNNYVSWYQQLPGTAPRTLIYGDTKRPSGIPDRFSGSKSGTSATLGITGLQTGDEADYYCASAEDSSSNAVFGSGTTLTVLGQPKAAPSVTLFPPSSEELQANKATLVCLISDFYPGAVTVAWKADSSPVKAGVETTTPSKQSNNKYAASSYLSLTPEQWKSHRSYSCQVTHEGSTVEKTVAPTECS
B2: VH4-34+CDR3-IL8_CDR2 E50S / VL1-51 S2A, T5N, P8S, A12G, A13S, P14L, D51G, N52D, N53T IgG (antibody)
VH: QVQLQQWGAGLLKPSETLSLTCAVYGGSFSGYYWSWIRQPPGKGLEWIGSINHSGSTNYNPSLKSRVTISVDTSKNQFSLKLSSVTAADTAVYYCTSVHQETKKYQSPRSAKELRCQCIKTYSKPFHPKFIKELRVIESGPHCANTEIIVKLSDGRELCLDPKENWVQRVVEKFLKRAENSGSGSYTYNYEWHVDVWGQGLLVTVSSAS
light: QAVLNQPSSVSGSLGQKVTISCSGSSSNIGNNYVSWYQQLPGTAPKLLIYGDTKRPSGIPDRFSGSKSGTSATLGITGLQTGDEADYYCASAEDSSSNAVFGSGTTLTVLGQPKAAPSVTLFPPSSEELQANKATLVCLISDFYPGAVTVAWKADSSPVKAGVETTTPSKQSNNKYAASSYLSLTPEQWKSHRSYSCQVTHEGSTVEKTVAPTECS
B3: VH4-34+CDR3-IL8_CDR1 G31D,Y32K / V1-47 IgG (antibody, part only; not given: V1-47 light chain, part only)
VH: QVQLQQWGAGLLKPSETLSLTCAVYGGSFSDKYWSWIRQPPGKGLEWIGEINHSGSTNYNPSLKSRVTISVDTSKNQFSLKLSSVTAADTAVYYCTSVHQETKKYQSPRSAKELRCQCIKTYSKPFHPKFIKELRVIESGPHCANTEIIVKLSDGRELCLDPKENWVQRVVEKFLKRAENSGSGSYTYNYEWHVDVWGQGLLVTVSSAS
B4: VH4-34+CDR3-IL8_CDR1 G31D,Y32K / V1-51 IgG (antibody, part only)
heavy: QVQLQQWGAGLLKPSETLSLTCAVYGGSFSDKYWSWIRQPPGKGLEWIGEINHSGSTNYNPSLKSRVTISVDTSKNQFSLKLSSVTAADTAVYYCTSVHQETKKYQSPRSAKELRCQCIKTYSKPFHPKFIKELRVIESGPHCANTEIIVKLSDGRELCLDPKENWVQRVVEKFLKRAENSGSGSYTYNYEWHVDVWGQGLLVTVSSAS
light: QSVLTQPPSVSAAPGQKVTISCSGSSSNIGNNYVSWYQQLPGTAPKLLIYDNNKRPSGIPDRFSGSKSGTSATLGITGLQTGDEADYYCASAEDSSSNAVFGSGTTLTVLGQPKAAPSVTLFPPSSEELQANKATLVCLISDFYPGAVTVAWKADSSPVKAGVETTTPSKQSNNKYAASSYLSLTPEQWKSHRSYSCQVTHEGSTVEKTVAPTECS
B5: VH4-34+CDR3-IL8_CDR1 Cow / V1-47 IgG (antibody, part only; not given: V1-47 light chain, part only)
VH: QVQLQQWGAGLLKPSETLSLTCTASGFSLSDKAVGWIRQPPGKGLEWIGEINHSGSTNYNPSLKSRVTISVDTSKNQFSLKLSSVTAADTAVYYCTSVHQETKKYQSPRSAKELRCQCIKTYSKPFHPKFIKELRVIESGPHCANTEIIVKLSDGRELCLDPKENWVQRVVEKFLKRAENSGSGSYTYNYEWHVDVWGQGLLVTVSSAS
B6: VH4-34+CDR3-IL8_CDR1 Cow / V1-51 IgG (antibody, part only)
heavy: QVQLQQWGAGLLKPSETLSLTCTASGFSLSDKAVGWIRQPPGKGLEWIGEINHSGSTNYNPSLKSRVTISVDTSKNQFSLKLSSVTAADTAVYYCTSVHQETKKYQSPRSAKELRCQCIKTYSKPFHPKFIKELRVIESGPHCANTEIIVKLSDGRELCLDPKENWVQRVVEKFLKRAENSGSGSYTYNYEWHVDVWGQGLLVTVSSAS
light: QSVLTQPPSVSAAPGQKVTISCSGSSSNIGNNYVSWYQQLPGTAPKLLIYDNNKRPSGIPDRFSGSKSGTSATLGITGLQTGDEADYYCASAEDSSSNAVFGSGTTLTVLGQPKAAPSVTLFPPSSEELQANKATLVCLISDFYPGAVTVAWKADSSPVKAGVETTTPSKQSNNKYAASSYLSLTPEQWKSHRSYSCQVTHEGSTVEKTVAPTECS
B7: VH4-34+CDR3-IL8 / V1-47 IgG (antibody, part only; not given: V1-47 light chain, part only)
VH: QVQLQQWGAGLLKPSETLSLTCAVYGGSFSGYYWSWIRQPPGKGLEWIGEINHSGSTNYNPSLKSRVTISVDTSKNQFSLKLSSVTAADTAVYYCTSVHQETKKYQSPRSAKELRCQCIKTYSKPFHPKFIKELRVIESGPHCANTEIIVKLSDGRELCLDPKENWVQRVVEKFLKRAENSGSGSYTYNYEWHVDVWGQGLLVTVSSAS
B8: VH4-34+CDR3-IL8 / V1-51 IgG (antibody, part only; not given: V1-51 light chain, part only)
VH: QVQLQQWGAGLLKPSETLSLTCAVYGGSFSGYYWSWIRQPPGKGLEWIGEINHSGSTNYNPSLKSRVTISVDTSKNQFSLKLSSVTAADTAVYYCTSVHQETKKYQSPRSAKELRCQCIKTYSKPFHPKFIKELRVIESGPHCANTEIIVKLSDGRELCLDPKENWVQRVVEKFLKRAENSGSGSYTYNYEWHVDVWGQGLLVTVSSAS
B9: VH4-34+CDR3-IL8_CDR1 G31D,Y32K_CDR2 E50S / V1-47 IgG (antibody, part only; not given: V1-47 light chain, part only)
VH: QVQLQQWGAGLLKPSETLSLTCAVYGGSFSDKYWSWIRQPPGKGLEWIGSINHSGSTNYNPSLKSRVTISVDTSKNQFSLKLSSVTAADTAVYYCTSVHQETKKYQSPRSAKELRCQCIKTYSKPFHPKFIKELRVIESGPHCANTEIIVKLSDGRELCLDPKENWVQRVVEKFLKRAENSGSGSYTYNYEWHVDVWGQGLLVTVSSAS
B10: VH4-34+CDR3-IL8_CDR1 G31D,Y32K_CDR2 E50S / V1-51 IgG (antibody, part only; not given: V1-51 light chain, part only)
VH: QVQLQQWGAGLLKPSETLSLTCAVYGGSFSDKYWSWIRQPPGKGLEWIGSINHSGSTNYNPSLKSRVTISVDTSKNQFSLKLSSVTAADTAVYYCTSVHQETKKYQSPRSAKELRCQCIKTYSKPFHPKFIKELRVIESGPHCANTEIIVKLSDGRELCLDPKENWVQRVVEKFLKRAENSGSGSYTYNYEWHVDVWGQGLLVTVSSAS
B11: VH4-34+CDR3-IL8_CDR1 Cow_CDR2 E50S / V1-47 IgG (antibody, part only; not given: V1-47 light chain, part only)
VH: QVQLQQWGAGLLKPSETLSLTCTASGFSLSDKAVGWIRQPPGKGLEWIGSINHSGSTNYNPSLKSRVTISVDTSKNQFSLKLSSVTAADTAVYYCTSVHQETKKYQSPRSAKELRCQCIKTYSKPFHPKFIKELRVIESGPHCANTEIIVKLSDGRELCLDPKENWVQRVVEKFLKRAENSGSGSYTYNYEWHVDVWGQGLLVTVSSAS
B12: VH4-34+CDR3-IL8_CDR1 Cow_CDR2 E50S / V1-51 IgG (antibody, part only; not given: V1-51 light chain, part only)
VH: QVQLQQWGAGLLKPSETLSLTCTASGFSLSDKAVGWIRQPPGKGLEWIGSINHSGSTNYNPSLKSRVTISVDTSKNQFSLKLSSVTAADTAVYYCTSVHQETKKYQSPRSAKELRCQCIKTYSKPFHPKFIKELRVIESGPHCANTEIIVKLSDGRELCLDPKENWVQRVVEKFLKRAENSGSGSYTYNYEWHVDVWGQGLLVTVSSAS
B13: VH4-34+CDR3-IL8_CDR2 E50S / V1-47 IgG (antibody, part only; not given: V1-47 light chain, part only)
VH: QVQLQQWGAGLLKPSETLSLTCAVYGGSFSGYYWSWIRQPPGKGLEWIGSINHSGSTNYNPSLKSRVTISVDTSKNQFSLKLSSVTAADTAVYYCTSVHQETKKYQSPRSAKELRCQCIKTYSKPFHPKFIKELRVIESGPHCANTEIIVKLSDGRELCLDPKENWVQRVVEKFLKRAENSGSGSYTYNYEWHVDVWGQGLLVTVSSAS
B14: VH4-34+CDR3-IL8_CDR2 E50S / V1-51 IgG (antibody, part only; not given: V1-51 light chain, part only)
VH: QVQLQQWGAGLLKPSETLSLTCAVYGGSFSGYYWSWIRQPPGKGLEWIGSINHSGSTNYNPSLKSRVTISVDTSKNQFSLKLSSVTAADTAVYYCTSVHQETKKYQSPRSAKELRCQCIKTYSKPFHPKFIKELRVIESGPHCANTEIIVKLSDGRELCLDPKENWVQRVVEKFLKRAENSGSGSYTYNYEWHVDVWGQGLLVTVSSAS
B15: VH4-34+CDR3-IL8_CDR1 Cow_CDR2 Cow / V1-47 IgG (antibody, part only; not given: V1-47 light chain, part only)
VH: QVQLQQWGAGLLKPSETLSLTCTASGFSLSDKAVGWIRQPPGKGLEWLGSIDTGGNTGYNPSLKSRVTISVDTSKNQFSLKLSSVTAADTAVYYCTSVHQETKKYQSPRSAKELRCQCIKTYSKPFHPKFIKELRVIESGPHCANTEIIVKLSDGRELCLDPKENWVQRVVEKFLKRAENSGSGSYTYNYEWHVDVWGQGLLVTVSSAS
B16: VH4-34+CDR3-IL8_CDR2 Cow / V1-47 IgG (antibody, part only; not given: V1-47 light chain, part only)
VH: QVQLQQWGAGLLKPSETLSLTCAVYGGSFSGYYWSWIRQPPGKGLEWLGSIDTGGNTGYNPSLKSRVTISVDTSKNQFSLKLSSVTAADTAVYYCTSVHQETKKYQSPRSAKELRCQCIKTYSKPFHPKFIKELRVIESGPHCANTEIIVKLSDGRELCLDPKENWVQRVVEKFLKRAENSGSGSYTYNYEWHVDVWGQGLLVTVSSAS
B17: VH4-34+CDR3-IL8_CDR2 Cow / V1-51 IgG (antibody, part only; not given: V1-51 light chain, part only)
VH: QVQLQQWGAGLLKPSETLSLTCAVYGGSFSGYYWSWIRQPPGKGLEWLGSIDTGGNTGYNPSLKSRVTISVDTSKNQFSLKLSSVTAADTAVYYCTSVHQETKKYQSPRSAKELRCQCIKTYSKPFHPKFIKELRVIESGPHCANTEIIVKLSDGRELCLDPKENWVQRVVEKFLKRAENSGSGSYTYNYEWHVDVWGQGLLVTVSSAS

These binders were tested against CXCR1 (UniProt P25024) (assay: flow cytometry, supernatant at 5 nM IgG).
Sequence of CXCR1 (P25024 whole entry): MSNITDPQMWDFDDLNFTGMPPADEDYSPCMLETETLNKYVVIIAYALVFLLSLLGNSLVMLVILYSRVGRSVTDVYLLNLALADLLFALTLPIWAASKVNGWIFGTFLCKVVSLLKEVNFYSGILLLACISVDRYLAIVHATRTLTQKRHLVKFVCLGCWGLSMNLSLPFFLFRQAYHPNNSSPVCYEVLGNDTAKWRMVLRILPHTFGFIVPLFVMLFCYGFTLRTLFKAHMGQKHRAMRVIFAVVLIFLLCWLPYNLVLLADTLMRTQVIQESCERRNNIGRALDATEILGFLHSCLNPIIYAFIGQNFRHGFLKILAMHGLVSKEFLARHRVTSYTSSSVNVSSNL

For B1, which Specific Binding (CXCR1-Cell median AFU / Parental Cell median AFU) is on record?
The Specific Binding (CXCR1-Cell median AFU / Parental Cell median AFU) was 2.

B2 was tested. Which Specific Binding (CXCR1-Cell median AFU / Parental Cell median AFU) did it give?
Its Specific Binding (CXCR1-Cell median AFU / Parental Cell median AFU) is 2.

What follows are binders tested against CXCR1 (UniProt P25024) (assay: flow cytometry, CXCR1-U2OS / parental U2OS).

How did the CXCR1/Parental Ratio turn out when B3 was run?
Its CXCR1/Parental Ratio is 3.6.

With B4 as the binder, how does the CXCR1/Parental Ratio read?
Its CXCR1/Parental Ratio is 3.

With B5 as the binder, how does the CXCR1/Parental Ratio read?
The CXCR1/Parental Ratio was 5.1.

Which CXCR1/Parental Ratio does the source give for B6 here?
The CXCR1/Parental Ratio was 2.4.

For B7, which CXCR1/Parental Ratio is on record?
Its CXCR1/Parental Ratio is 2.6.

For B8, which CXCR1/Parental Ratio is on record?
The CXCR1/Parental Ratio was 2.9.

B9 was tested. Which CXCR1/Parental Ratio did it give?
Its CXCR1/Parental Ratio is 1.4.

B10 was tested. Which CXCR1/Parental Ratio did it give?
Its CXCR1/Parental Ratio is 3.

With B11 as the binder, how does the CXCR1/Parental Ratio read?
The CXCR1/Parental Ratio was 2.6.

For B12, which CXCR1/Parental Ratio is on record?
The CXCR1/Parental Ratio was 3.1.

For B13, which CXCR1/Parental Ratio is on record?
The CXCR1/Parental Ratio was 3.3.

How did the CXCR1/Parental Ratio turn out when B14 was run?
Its CXCR1/Parental Ratio is 1.8.

With B15 as the binder, how does the CXCR1/Parental Ratio read?
The CXCR1/Parental Ratio was 4.6.

With B16 as the binder, how does the CXCR1/Parental Ratio read?
Its CXCR1/Parental Ratio is 2.5.

Which CXCR1/Parental Ratio does the source give for B17 here?
Its CXCR1/Parental Ratio is 3.9.

These binders were tested against CXCR1 (UniProt P25024) (assay: flow cytometry, 10 nM IgG, 2 ug/ml heparin sulfate, CXCR1-U2OS / parental U2OS).

Which CXCR1 specificity (CXCR1/parental ratio) does the source give for B6 here?
Its CXCR1 specificity (CXCR1/parental ratio) is 7.2.
